Laboratory results as given in the supplement of paper PMC12764529.
± gives the half width of the 95% confidence interval.

assay: folding stability dG unfold (combined trypsin and chymotrypsin); higher = more stable
How it was run: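 Only designs with AlphaFold2 dimer inter-PAE above 15 were retained; each was a mini-protein under 80 residues with no cysteine, in a PA-tagged cDNA display construct. After digestion with trypsin and chymotrypsin and sequencing, K50 was inferred by Bayesian fitting of counts, and unfolding free energy was derived per protease or combined against a sequence-predicted unfolded-state K50 and a shared folded-state K50.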

Going from “SAGGKKKKVIIVIEAPPGMSAEEIAAAIAEKLGLPKEEIKVERFKSVEEALAAAEKEGKEVIVIEVDSAGGS [r8_245_TrROS_Hall]” to “SAGGSAGGSMKYLVTFPEGGPVPLPDGTSVALAPGAVLELETEEEAEALKALNPGRPVVITPVSAGGSAGGS [r12_987_JUSTAS]”, the “folding stability dG unfold” value falls from 2.41 ± 0.096 kcal/mol to 1.47 ± 0.05 kcal/mol.

“SAGGGSSYTLLSESTSTDPATGATLTTTTYRAPDGTIYYDSTLTAPDGTTTGTATAVDPDGTPVTIALSAGG [r13_573_JUSTAS]” and “SAGGDNVRPIKFEFKDGVKKSIYRSEDMIYINVEFYYDGRPLYRHSIEIPNIPPGDDAEIKFKIPPGSAGGS [r8_155_TrROS]” are within error of each other in “folding stability dG unfold” value: 1.41 ± 0.1 kcal/mol for the first, 1.24 ± 0.21 kcal/mol for the second.

“SAGGSAPKPDWIVRIEITVKFPGKTKKIDIVIDSPEALNQIINELKDEGFKDVEPKIEWVPLEEMKSAGGSA [r15_1015_TrROS]” and “SMPVTITITLHKDPNSDVIPVRLEMTDSAGNPIGEREIDYTTTEEEARERAVALAEEIAAATGYTIEFGESA [r9_31_JUSTAS]” are within error of each other in “folding stability dG unfold” value: 0.915 ± 0.26 kcal/mol for the first, 0.8 ± 0.11 kcal/mol for the second.

Going from “SAGGGLALRLEVETERVEREVFDADGRLVAREEVEVRRVRLELVPLPPAPPPPTVTVRPGDPRDPRLRSAGG [r13_508_TrROS_Hall]” to “SAMRIEIVRDPETGELVVRVVLPREEAEEAAEELARRLAEAGLEVEVKVVRIEETDGETRVVVEIKVKPSAG [r14_345_TrROS_Hall]”, the “folding stability dG unfold” value rises from 2.69 ± 0.13 kcal/mol to 3.3 ± 0.1 kcal/mol.

“SAFRFPPGQTIMIKIEWRNPGNGKKRKWSIPIRVDPDKGRVITLDMLKSFLRKWGFNPEDVKIEDITVMSAG [r14_93_TrROS]” and “SAGGSAPFVPPGFVKSVEEFEVTFPDGSKYRVTLIEVDGGPLVLVEKPGVGEPKTLPFEKLLELLASAGGSA [r15_329_TrMRF]” are within error of each other in “folding stability dG unfold” value: 1.81 ± 0.041 kcal/mol for the first, 1.73 ± 0.13 kcal/mol for the second.

First: SAGGSAGGSSSSSVVTKPLPEEPLLVVTTTLPPSTPPGTTSTTTIIEPETGKVLETTDINIPSSAGGSAGGS [r12_564_JUSTAS]
Second: SAGGSAGGTSVADELEEEFKAKGYPAEVTVTKLPDDTTLVTVTVTDPKTGKSTTTTVTVSPAEASAGGSAGG [r6_692_JUSTAS]
The “folding stability dG unfold” value of the first is higher: 1.41 ± 0.11 kcal/mol for the first, 0.861 ± 0.16 kcal/mol for the second.

Going from “SAGKKIELTFRNPDGWMIRITIEKKPNGGFQITEITWEPYPNGRMSAKIYVPNGKTIEVNSWDDILDALSAG [r5_618_TrROS]” to “SAGGSAGGSAGKKVKISLILIAKSPEEAEEAAKAIKEAFGSEDVEVDIIEIPAKLGPGKLSAGGSAGGSAGG [r17_285_TrMRF]”, the “folding stability dG unfold” value falls from 2.12 ± 0.12 kcal/mol to 0.378 ± 0.26 kcal/mol.

Going from “SAAFKGKNGKTIKITAKVKPNELTPEQVKELALAAVKNIFPENEKVEVKVKVEKLPNGEVLVYVEVKAESAG [r14_389_TrMRF]” to “SAGGSGQKFEIDRMIHIPLPNGRMLYIMRMKNPIMIMEFNGDNFRPVATVPNDDIPPEIRDLIKKLSAGGSA [r2_133_TrROS]”, the “folding stability dG unfold” value rises from 0.905 ± 0.085 kcal/mol to 2.27 ± 0.12 kcal/mol.

Compared with “SAGGSIETIAERARDLARELNPDDGKEYPITIEIRDPENNRPIRIKISVRYDPDGKIKKVKFTKFEPYSAGG [r13_770_TrROS]”, “SAGGSAKKKEVKELTLVIKVKTEEEALKAAEELIRKLLPPDAEIVEVKVEKVKPGEVYITVKVRLKSAGGSA [r15_183_TrROS_Hall]” is higher in “folding stability dG unfold” value: 1.06 ± 0.077 kcal/mol for the first, 3.67 ± 0.18 kcal/mol for the second.

Going from “SAGGSAMVMITIKIKFPGNEVEINMPAEDLDELLSHPELGDNFEITEIEVMPIPPPPVDPEQAEEKSAGGSA [r15_460_TrROS]” to “SMSPEALKKANEFAEYIAEHFKNWNIEIDVEVEWDPDGEITIRAKIEMRPPPPPPPKPKRDPNGKWKWEGSA [r9_82_TrROS]”, the “folding stability dG unfold” value rises from 1.03 ± 0.24 kcal/mol to 1.84 ± 0.51 kcal/mol.

“SAGGSAGGSAGMLWIHDPESGTLVMLHPKPDGEVNVQVWQFDPDNGKPEIKTVPADNIEASAGGSAGGSAGG [r11_285_TrROS]” and “SAMVEVRIEYDEETGEIRIEVRAEEEGEELTEEEIEELARELAEELGLPVEIKEIRVEKAPEVEEVVLESAG [r14_556_TrROS_Hall]” are within error of each other in “folding stability dG unfold” value: 0.924 ± 0.091 kcal/mol for the first, 0.884 ± 0.3 kcal/mol for the second.

Going from “SAGGGMEIRLTIYRVDPETGVETSVEKEVTLEEAKEIVKEIPEEGEYTVRVTRPDRPEDVSPEELKLLSAGG [r13_254_JUSTAS]” to “SAKIKIEKKEDGTIVIEVEAESEEEAEEAVKELVKELEKKGIKVEVVEVKIEKDPEKKGKYRVTIVIKKSAG [r14_119_TrROS_Hall]”, the “folding stability dG unfold” value rises from 0.192 ± 0.073 kcal/mol to 3.76 ± 0.33 kcal/mol.

First: SAMTVTSSVTTQPVPDSSDTVTYTNITVTIGNQTVTYTETVTYSSTDPTLRTVTTLLPDGTTVTTTVPVGSA [r9_897_JUSTAS]
Second: SAGGSAGGSAFKLPPGKKITIFFDPENGNFAIMVPDGNERRVPMPAEELIKLGFPVEIIGPWSAGGSAGGSA [r18_125_TrROS]
The “folding stability dG unfold” value of the first is higher: 2.18 ± 0.13 kcal/mol for the first, 0.517 ± 0.19 kcal/mol for the second.

“SAGGSAGGSAVTIYIPWDEILEELGLPPEDVEYKPMKNGSYSFKYKNGKPVTIIMPPEDFKSAGGSAGGSAG [r3_477_TrROS]” and “SAGGSAGGSGSSSMPVTVEVKPLATEVDPSNGLVTVTELVTVTRGDTTTLTVTTTTLPPGAPASAGGSAGGS [r12_1010_JUSTAS]” are within error of each other in “folding stability dG unfold” value: 0.663 ± 0.19 kcal/mol for the first, 0.591 ± 0.098 kcal/mol for the second.

Going from “SAGGSAGGSAGGERVVRFPYTGTLEDVLEAARRLRRLGGVEVGYDPENGVLLARFKGGGLSAGGSAGGSAGG [r7_219_TrMRF]” to “SAGGSAGGSAMTIKVEVTVKVKVKLENGETKEKEVKVTVEIELPPLTKEELEKNKELLKKLLSAGGSAGGSA [r18_114_TrROS_Hall]”, the “folding stability dG unfold” value rises from 1.25 ± 0.049 kcal/mol to 2.42 ± 0.16 kcal/mol.

“SAGGSAGGSMKVSPASRSEFDGSRVITITVTKEGTGTTTDITIPFSPDEPDVDEVAKAIAESLSAGGSAGGS [r12_415_JUSTAS]” and “SAGGSAEELAKELAEKEGVKEVKVTVIKNKNGKLVLKVENKETNKTYEIELPEGAEVVEEITLKVKSAGGSA [r2_74_TrROS_Hall]” are within error of each other in “folding stability dG unfold” value: 0.838 ± 0.091 kcal/mol for the first, 0.923 ± 0.1 kcal/mol for the second.
